Drawing on paper PMC7542843 (ACS Omega, 2020), this text covers Kd for 2 molecules.

One assay deals with EGF (Homo sapiens) (UniProt P01133). The conditions noted are these: cited from earlier work.
Assay [1] has as its target biotinylated HER3 extracellular domain (ECD) (UniProt P21860 20-643, biotin on the C-terminal BirA biotinylation site). Nature of the assay: ELISA.

Chain of biotinylated HER3 extracellular domain (ECD) (P21860 20-643): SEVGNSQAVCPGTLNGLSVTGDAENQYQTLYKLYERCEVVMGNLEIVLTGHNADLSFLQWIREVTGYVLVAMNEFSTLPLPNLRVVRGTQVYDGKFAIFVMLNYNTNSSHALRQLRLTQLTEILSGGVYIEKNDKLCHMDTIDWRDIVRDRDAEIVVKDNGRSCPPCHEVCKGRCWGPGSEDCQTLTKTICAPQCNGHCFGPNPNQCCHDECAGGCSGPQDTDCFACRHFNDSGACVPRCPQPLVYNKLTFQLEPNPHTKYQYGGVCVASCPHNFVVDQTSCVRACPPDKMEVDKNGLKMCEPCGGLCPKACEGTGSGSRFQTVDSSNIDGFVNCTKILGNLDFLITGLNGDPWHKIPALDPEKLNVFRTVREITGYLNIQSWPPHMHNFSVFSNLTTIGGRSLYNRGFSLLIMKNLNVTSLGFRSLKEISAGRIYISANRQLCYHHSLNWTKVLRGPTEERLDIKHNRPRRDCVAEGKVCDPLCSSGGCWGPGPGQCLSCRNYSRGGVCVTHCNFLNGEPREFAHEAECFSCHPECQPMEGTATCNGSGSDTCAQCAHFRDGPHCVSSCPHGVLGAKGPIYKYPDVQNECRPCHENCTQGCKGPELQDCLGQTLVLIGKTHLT
Chain of EGF (Homo sapiens) (P01133 971-1023): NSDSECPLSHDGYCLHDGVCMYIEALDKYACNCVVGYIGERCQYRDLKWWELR

As for EGFR (from UniProt P00533), the Kd with EGF (Homo sapiens) was 0.177 µM.

B1: Heregulin-β1 (Hrgβ1) (ligand)
chain: TSHLVKCAEKEKTFCVNGGECFMVKDLSNPSRYLCKCPNEFTGDRCQNYVMASFYKHLGIEFMEAEELYQK
For the molecule B1, the Kd in assay [1] is 0.0126 µM.
